Laboratory results as given in the Human Domainome abundance scans (Beltran et al. 2025).
± gives the uncertainty stated by the source.

B1: Gamma-crystallin S, residues 96 to 176; numbered along this chain, P22914 (parent)
chain: IQIFEKGDFSGQMYETTEDCPSIMEQFHMREIHSCKVLEGVWIFYELPNYRGRQYLLDKKEYRKPIDWGAASPAVQSFRRI

Variants of: B1
Assay: abundance fitness (aPCA) (normalised: wild type 0, dead -1); higher = more abundant; growth selection in yeast, the domain comes from the species named
Details: Homo sapiens

First: IQIFEKGDFSLQMYETTEDCPSIMEQFHMREIHSCKVLEGVWIFYELPNYRGRQYLLDKKEYRKPIDWGAASPAVQSFRRI [G11L]
Second: IQIFEKGDFSIQMYETTEDCPSIMEQFHMREIHSCKVLEGVWIFYELPNYRGRQYLLDKKEYRKPIDWGAASPAVQSFRRI [G11I]
The abundance fitness of the first is higher: -0.137 ± 0.041 for the first, -0.372 ± 0.17 for the second.

IQIFEKGDFSCQMYETTEDCPSIMEQFHMREIHSCKVLEGVWIFYELPNYRGRQYLLDKKEYRKPIDWGAASPAVQSFRRI [G11C] and IQIFEKGDFSMQMYETTEDCPSIMEQFHMREIHSCKVLEGVWIFYELPNYRGRQYLLDKKEYRKPIDWGAASPAVQSFRRI [G11M] are within error of each other in abundance fitness: 0.066 ± 0.057 for the first, 0.062 ± 0.055 for the second.

IQIFEKGDFSDQMYETTEDCPSIMEQFHMREIHSCKVLEGVWIFYELPNYRGRQYLLDKKEYRKPIDWGAASPAVQSFRRI [G11D] and IQIFEKGDFSNQMYETTEDCPSIMEQFHMREIHSCKVLEGVWIFYELPNYRGRQYLLDKKEYRKPIDWGAASPAVQSFRRI [G11N] are within error of each other in abundance fitness: -0.009 ± 0.088 for the first, -0.002 ± 0.14 for the second.

IQIFEKGDFSAQMYETTEDCPSIMEQFHMREIHSCKVLEGVWIFYELPNYRGRQYLLDKKEYRKPIDWGAASPAVQSFRRI [G11A] and IQIFEKGDFSPQMYETTEDCPSIMEQFHMREIHSCKVLEGVWIFYELPNYRGRQYLLDKKEYRKPIDWGAASPAVQSFRRI [G11P] are within error of each other in abundance fitness: 0.041 ± 0.042 for the first, 0.012 ± 0.057 for the second.

IQIFEKGDFSHQMYETTEDCPSIMEQFHMREIHSCKVLEGVWIFYELPNYRGRQYLLDKKEYRKPIDWGAASPAVQSFRRI [G11H] and IQIFEKGDFSKQMYETTEDCPSIMEQFHMREIHSCKVLEGVWIFYELPNYRGRQYLLDKKEYRKPIDWGAASPAVQSFRRI [G11K] are within error of each other in abundance fitness: -0.021 ± 0.074 for the first, 0.105 ± 0.081 for the second.

Compared with IQIFEKGDFSFQMYETTEDCPSIMEQFHMREIHSCKVLEGVWIFYELPNYRGRQYLLDKKEYRKPIDWGAASPAVQSFRRI [G11F], IQIFEKGDFSEQMYETTEDCPSIMEQFHMREIHSCKVLEGVWIFYELPNYRGRQYLLDKKEYRKPIDWGAASPAVQSFRRI [G11E] is higher in abundance fitness: -0.294 ± 0.069 for the first, -0.01 ± 0.062 for the second.

IQIFEKGDVSGQMYETTEDCPSIMEQFHMREIHSCKVLEGVWIFYELPNYRGRQYLLDKKEYRKPIDWGAASPAVQSFRRI [F9V] and IQIFEKGDYSGQMYETTEDCPSIMEQFHMREIHSCKVLEGVWIFYELPNYRGRQYLLDKKEYRKPIDWGAASPAVQSFRRI [F9Y] are within error of each other in abundance fitness: -0.12 ± 0.036 for the first, -0.008 ± 0.092 for the second.

IQIFEKGDTSGQMYETTEDCPSIMEQFHMREIHSCKVLEGVWIFYELPNYRGRQYLLDKKEYRKPIDWGAASPAVQSFRRI [F9T] and IQIFEKGDWSGQMYETTEDCPSIMEQFHMREIHSCKVLEGVWIFYELPNYRGRQYLLDKKEYRKPIDWGAASPAVQSFRRI [F9W] are within error of each other in abundance fitness: -0.051 ± 0.057 for the first, -0.018 ± 0.053 for the second.

First: IQIFEKGDFYGQMYETTEDCPSIMEQFHMREIHSCKVLEGVWIFYELPNYRGRQYLLDKKEYRKPIDWGAASPAVQSFRRI [S10Y]
Second: IQIFEKGDFTGQMYETTEDCPSIMEQFHMREIHSCKVLEGVWIFYELPNYRGRQYLLDKKEYRKPIDWGAASPAVQSFRRI [S10T]
The abundance fitness of the first is higher: 0.068 ± 0.089 for the first, -0.157 ± 0.061 for the second.

IQIFEKGDFLGQMYETTEDCPSIMEQFHMREIHSCKVLEGVWIFYELPNYRGRQYLLDKKEYRKPIDWGAASPAVQSFRRI [S10L] and IQIFEKGDFGGQMYETTEDCPSIMEQFHMREIHSCKVLEGVWIFYELPNYRGRQYLLDKKEYRKPIDWGAASPAVQSFRRI [S10G] are within error of each other in abundance fitness: 0.005 ± 0.041 for the first, -0.004 ± 0.038 for the second.

IQIFEKGDFIGQMYETTEDCPSIMEQFHMREIHSCKVLEGVWIFYELPNYRGRQYLLDKKEYRKPIDWGAASPAVQSFRRI [S10I] and IQIFEKGDFQGQMYETTEDCPSIMEQFHMREIHSCKVLEGVWIFYELPNYRGRQYLLDKKEYRKPIDWGAASPAVQSFRRI [S10Q] are within error of each other in abundance fitness: -0.059 ± 0.091 for the first, 0.022 ± 0.069 for the second.

Compared with IQIFEKGDFAGQMYETTEDCPSIMEQFHMREIHSCKVLEGVWIFYELPNYRGRQYLLDKKEYRKPIDWGAASPAVQSFRRI [S10A], IQIFEKGDFPGQMYETTEDCPSIMEQFHMREIHSCKVLEGVWIFYELPNYRGRQYLLDKKEYRKPIDWGAASPAVQSFRRI [S10P] is lower in abundance fitness: -0.039 ± 0.052 for the first, -0.733 ± 0.097 for the second.

IQIFEKGDFNGQMYETTEDCPSIMEQFHMREIHSCKVLEGVWIFYELPNYRGRQYLLDKKEYRKPIDWGAASPAVQSFRRI [S10N] and IQIFEKGDFMGQMYETTEDCPSIMEQFHMREIHSCKVLEGVWIFYELPNYRGRQYLLDKKEYRKPIDWGAASPAVQSFRRI [S10M] are within error of each other in abundance fitness: 0.069 ± 0.1 for the first, -0.033 ± 0.068 for the second.

IQIFEKGDFFGQMYETTEDCPSIMEQFHMREIHSCKVLEGVWIFYELPNYRGRQYLLDKKEYRKPIDWGAASPAVQSFRRI [S10F] and IQIFEKGDFDGQMYETTEDCPSIMEQFHMREIHSCKVLEGVWIFYELPNYRGRQYLLDKKEYRKPIDWGAASPAVQSFRRI [S10D] are within error of each other in abundance fitness: -0.091 ± 0.088 for the first, -0.12 ± 0.1 for the second.

IQIFEKGDFEGQMYETTEDCPSIMEQFHMREIHSCKVLEGVWIFYELPNYRGRQYLLDKKEYRKPIDWGAASPAVQSFRRI [S10E] and IQIFEKGDFWGQMYETTEDCPSIMEQFHMREIHSCKVLEGVWIFYELPNYRGRQYLLDKKEYRKPIDWGAASPAVQSFRRI [S10W] are within error of each other in abundance fitness: 0.013 ± 0.064 for the first, -0.047 ± 0.051 for the second.

IQIFEKGDFVGQMYETTEDCPSIMEQFHMREIHSCKVLEGVWIFYELPNYRGRQYLLDKKEYRKPIDWGAASPAVQSFRRI [S10V] and IQIFEKGDFRGQMYETTEDCPSIMEQFHMREIHSCKVLEGVWIFYELPNYRGRQYLLDKKEYRKPIDWGAASPAVQSFRRI [S10R] are within error of each other in abundance fitness: -0.003 ± 0.045 for the first, -0.018 ± 0.038 for the second.

IQIFEKGDFCGQMYETTEDCPSIMEQFHMREIHSCKVLEGVWIFYELPNYRGRQYLLDKKEYRKPIDWGAASPAVQSFRRI [S10C] and IQIFEKGDFKGQMYETTEDCPSIMEQFHMREIHSCKVLEGVWIFYELPNYRGRQYLLDKKEYRKPIDWGAASPAVQSFRRI [S10K] are within error of each other in abundance fitness: -0.081 ± 0.088 for the first, 0.006 ± 0.08 for the second.
